No end group written: not given here.
Legend:
[1] = molecular target: CD43 expressed on the surface of COLO 205 colorectal cancer cells (human) (UniProt P16150); experiment: flow cytometry on COLO 205 cells
[2] = molecular target: CD43 on human peripheral T cells (human) (UniProt P16150); experiment: flow cytometry on peripheral T cells
[3] = molecular target: CD43 expressed on the surface of COLO 205 colorectal cancer cells (human) (UniProt P16150); experiment: cell-based or functional assay
[4] = molecular target: CD43 on Jurkat cells (lymphoblastoid leukemia cell line; ATCC TIB-152) (human) (UniProt P16150); experiment: flow cytometry on Jurkat cells
[5] = molecular target: CD43 expressed on the surface of NCI-N87 gastric cancer cells (human) (UniProt P16150); experiment: flow cytometry on NCI-N87 cells
5F1-01-2-21 = molecular target: T1, 5F1-01-2-21 (also: fused to unnamed carrier protein, order not given here); experiment: sandwich ELISA, 5F1 coated, peptide-carrier fusion
T1 construct: Tested as a fusion to an unnamed carrier protein; not shown: the unnamed carrier protein to which the 12-mer was fused (and any linker to it)
T1 peptide: WPIDLMSETPIL
Experimental: (§1) To further confirm the tripeptide epitope that antibody 5F1 binds, Sandwich ELISA was performed. 96-well microtiter plates were coated with antibody (5F1 or control antibody 9E10) with 50 μl per well at the concentration of 1 μg/ml over night at 4° C. Plates were blocked by incubation with 0.25% of BSA in PBS (150 μl/well) for 1 hour at 37° C. Plates were then incubated with fusion proteins containing various fragments of polypeptides fused to a carrier protein for 2 hours at room temperature. After washing 4 times with PBS containing 0.05% of Tween 20, plates were then incubated with carrier protein-specific antibody at 2 μg/ml for 1.5 hours at room temperature. After incubation, plates were washed 4 times with PBST. 50 μl of 1 to 3000 diluted Goat anti-carrier protein-specific antibody conjugated with HRP was then added to each well and the plates were incubated for 1 hour at 37° C. Enzyme reaction was carried out by adding substrate of the HRP enzyme to determine the reactivity of the designated polypeptide to these to these two antibodies (5F1 and 9E10). […] Monoclonal antibody 5F1 recognized a tripeptide WPI epitope structure.

5F1-01-2-18 = molecular target: T2, 5F1-01-2-18 (also: fused to unnamed carrier protein); experiment: sandwich ELISA, 5F1 coated, peptide-carrier fusion
T2 construct: Tested as a fusion to an unnamed carrier protein; not shown: the unnamed carrier protein to which the 12-mer was fused (and any linker to it)
T2 peptide: WPISGKHSFWSL
Experimental: as §1

5F1-01-2-17 = molecular target: T3, 5F1-01-2-17 (also: fused to unnamed carrier protein); experiment: sandwich ELISA, 5F1 coated, peptide-carrier fusion
T3 construct: Tested as a fusion to an unnamed carrier protein; not shown: the unnamed carrier protein to which the 12-mer was fused (and any linker to it)
T3 peptide: WPILDHAVSRPS
Experimental: as §1

5F1-01-2-16 = molecular target: T4, 5F1-01-2-16 (also: fused to unnamed carrier protein); experiment: sandwich ELISA, 5F1 coated, peptide-carrier fusion
T4 construct: Tested as a fusion to an unnamed carrier protein; not shown: the unnamed carrier protein to which the 12-mer was fused (and any linker to it)
T4 peptide: WPIDIPYAWDFS
Experimental: as §1

5F1-01-2-13 = molecular target: T5, 5F1-01-2-13 (also: fused to unnamed carrier protein); experiment: sandwich ELISA, 5F1 coated, peptide-carrier fusion
T5 construct: Tested as a fusion to an unnamed carrier protein; not shown: the unnamed carrier protein to which the 12-mer was fused (and any linker to it)
T5 peptide: WPISPQPGARPV
Experimental: as §1

5F1-01-2-09 = molecular target: T6, 5F1-01-2-09 (also: fused to unnamed carrier protein); experiment: sandwich ELISA, 5F1 coated, peptide-carrier fusion
T6 construct: Tested as a fusion to an unnamed carrier protein; not shown: the unnamed carrier protein to which the 12-mer was fused (and any linker to it)
T6 peptide: WPIAPNRYLLSS
Experimental: as §1

5F1-01-2-06 = molecular target: T7, 5F1-01-2-06 (also: fused to unnamed carrier protein); experiment: sandwich ELISA, 5F1 coated, peptide-carrier fusion
T7 construct: Tested as a fusion to an unnamed carrier protein; not shown: the unnamed carrier protein to which the 12-mer was fused (and any linker to it)
T7 peptide: WPIPPEVEPFKH
Experimental: as §1

5F1-01-2-22 = molecular target: T8, 5F1-01-2-22; experiment: sandwich ELISA, 5F1 coated, peptide-carrier fusion
T8 construct: Tested as a fusion to an unnamed carrier protein
T8 peptide: WPITNSDSRITW
Experimental: as §1

5F1-01-2-14 = molecular target: T9, 5F1-01-2-14; experiment: sandwich ELISA, 5F1 coated, peptide-carrier fusion
T9 construct: Tested as a fusion to an unnamed carrier protein
T9 peptide: WPIHSAHVRYTT
Experimental: as §1

5F1-01-2-04 = molecular target: T10, 5F1-01-2-04 (also: fused to unnamed carrier protein); experiment: sandwich ELISA, 5F1 coated, peptide-carrier fusion
T10 construct: Tested as a fusion to an unnamed carrier protein; not shown: the unnamed carrier protein to which the 12-mer was fused (and any linker to it)
T10 peptide: WPIANHENALSA

5F1-01-2-23 = molecular target: T11, 5F1-01-2-23; experiment: sandwich ELISA, 5F1 coated, peptide-carrier fusion
T11 construct: Tested as a fusion to an unnamed carrier protein
T11 peptide: WPIPTLMELPSA

9F9-01-03-24 = molecular target: T12, 9F9-01-03-24; experiment: sandwich ELISA, 5F1 coated, peptide-carrier fusion
T12 construct: Tested as a fusion to an unnamed carrier protein
T12 peptide: AETDYDPDHFTP

9F9-01-03-18 = molecular target: T13, 9F9-01-03-18; experiment: sandwich ELISA, 5F1 coated, peptide-carrier fusion
T13 construct: Tested as a fusion to an unnamed carrier protein
T13 peptide: DARYSHDPAWPY

9F9-01-03-17 = molecular target: T14, 9F9-01-03-17; experiment: sandwich ELISA, 5F1 coated, peptide-carrier fusion
T14 construct: Tested as a fusion to an unnamed carrier protein
T14 peptide: AGQKWDPEWPHS

9F9-01-03-21 = molecular target: T15, 9F9-01-03-21; experiment: sandwich ELISA, 5F1 coated, peptide-carrier fusion
T15 construct: Tested as a fusion to an unnamed carrier protein
T15 peptide: YDHHWTNPPTQK

9F9-01-03-25 = molecular target: T16, 9F9-01-03-25; experiment: sandwich ELISA, 5F1 coated, peptide-carrier fusion
T16 construct: Tested as a fusion to an unnamed carrier protein
T16 peptide: EPNMDPNWASPS

[6] = molecular target: CD43 expressed on the surface of COLO 205 colorectal cancer cells (human) (UniProt P16150); experiment: flow cytometry on COLO 205 cells; signal of biotinylated 5F1 (1 microgram/ml, competitor) with unlabeled antibody at 200 microgram/ml
[7] = molecular target: CD43 expressed on the surface of COLO 205 colorectal cancer cells (human) (UniProt P16150); experiment: flow cytometry on COLO 205 cells; signal of biotinylated 5F1 (1 microgram/ml, competitor) with unlabeled antibody at 7.4 microgram/ml
[8] = molecular target: CD43 expressed on the surface of COLO 205 colorectal cancer cells (human) (UniProt P16150); experiment: flow cytometry on COLO 205 cells; signal of biotinylated 5F1 (1 microgram/ml, competitor) with unlabeled antibody at 0.03 microgram/ml
[9] = molecular target: CD43 expressed on the surface of COLO 205 colorectal cancer cells (human) (UniProt P16150); experiment: flow cytometry on COLO 205 cells; signal of biotinylated 5F1 (1 microgram/ml, competitor) with unlabeled antibody at 0.09 microgram/ml
[10] = molecular target: CD43 expressed on the surface of COLO 205 colorectal cancer cells (human) (UniProt P16150); experiment: flow cytometry on COLO 205 cells; signal of biotinylated 5F1 (1 microgram/ml, competitor) with unlabeled antibody at 0.82 microgram/ml
[11] = molecular target: CD43 expressed on the surface of COLO 205 colorectal cancer cells (human) (UniProt P16150); experiment: flow cytometry on COLO 205 cells; signal of biotinylated 5F1 (1 microgram/ml, competitor) with unlabeled antibody at 2.46 microgram/ml
[12] = molecular target: CD43 expressed on the surface of COLO 205 colorectal cancer cells (human) (UniProt P16150); experiment: flow cytometry on COLO 205 cells; signal of biotinylated 5F1 (1 microgram/ml, competitor) with unlabeled antibody at 22.2 microgram/ml
[13] = molecular target: CD43 expressed on the surface of COLO 205 colorectal cancer cells (human) (UniProt P16150); experiment: flow cytometry on COLO 205 cells; signal of biotinylated 5F1 (1 microgram/ml, competitor) with unlabeled antibody at 66.7 microgram/ml
[14] = molecular target: CD43 expressed on the surface of COLO 205 colorectal cancer cells (human) (UniProt P16150); experiment: flow cytometry on COLO 205 cells; signal of biotinylated 5F1 (1 microgram/ml, competitor) with unlabeled antibody at 0.273 microgram/ml

CD43 expressed on the surface of COLO 205 colorectal cancer cells (human), sequence (P16150 20-400): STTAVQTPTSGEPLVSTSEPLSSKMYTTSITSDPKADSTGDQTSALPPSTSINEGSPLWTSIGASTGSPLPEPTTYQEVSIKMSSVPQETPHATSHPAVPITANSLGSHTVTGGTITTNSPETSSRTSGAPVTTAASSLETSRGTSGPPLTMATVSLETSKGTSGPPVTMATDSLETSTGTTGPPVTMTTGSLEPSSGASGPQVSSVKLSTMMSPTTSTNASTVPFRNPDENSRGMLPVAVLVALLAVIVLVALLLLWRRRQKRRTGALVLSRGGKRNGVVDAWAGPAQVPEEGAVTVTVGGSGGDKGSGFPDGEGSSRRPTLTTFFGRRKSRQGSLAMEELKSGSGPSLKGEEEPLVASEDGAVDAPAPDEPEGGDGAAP
CD43 on human peripheral T cells (human), sequence (P16150 20-400): as above
CD43 on Jurkat cells (lymphoblastoid leukemia cell line; ATCC TIB-152) (human), sequence (P16150 20-400): as above
CD43 expressed on the surface of NCI-N87 gastric cancer cells (human), sequence (P16150 20-400): as above

## MEM-59 (anti-CD43; Biovendor, Candler, NC) (antibody)
[1]
  % of Binding: > 70%
[2]
  % of Binding: > 80%

B1: monoclonal antibody 5F1 (antibody, V domains shown)
VH: EVQLQQSGPELVKPGASVRMSCTASGYTFTSYVMHWIKQKPGQGLDWIGYINPYNGGTQYNEKFKGKATLTSDKSSSTAYMELSSLTSEDSAVYYCARRTFPYYFDYWGQGTTLTVSS
VL: DVLMTQTPLSLPVSLGDQASISCRSSQSILHSNGNTYLEWYLQKPGQSPKLLIYKVSNRFSGVPDRFSGSGSGTDFTLKISRVEAEDLGVYYCFQGSHAPLTFGAGTKLELK
notes: also called m5F1; m133-5F1
[3]
  % Apoptosis (annexin-V+): > 40%
[4]
  % of Binding: < 10%
[5]
  % of Binding: > 80%
[1]
  % of Binding: > 80%
[2]
  % of Binding: < 10%
5F1-01-2-21
  binding result: binds
5F1-01-2-18
  binding result: binds
5F1-01-2-17
  binding result: binds
5F1-01-2-16
  binding result: binds
5F1-01-2-13
  binding result: binds
5F1-01-2-09
  binding result: binds
5F1-01-2-06
  binding result: binds
5F1-01-2-22
  binding result: binds
5F1-01-2-14
  binding result: binds
5F1-01-2-04
  binding result: binds
5F1-01-2-23
  binding result: binds
9F9-01-03-24
  binding result: no binding
9F9-01-03-18
  binding result: no binding
9F9-01-03-17
  binding result: no binding
9F9-01-03-21
  binding result: no binding
9F9-01-03-25
  binding result: no binding
[6]
  Mean Fluorescence Intensity: 9.78
[7]
  Mean Fluorescence Intensity: 129
[8]
  Mean Fluorescence Intensity: 888
[9]
  Mean Fluorescence Intensity: 825
[10]
  Mean Fluorescence Intensity: 1000
[11]
  Mean Fluorescence Intensity: 733
[12]
  Mean Fluorescence Intensity: 21.7
[13]
  Mean Fluorescence Intensity: 60.3
[14]
  Mean Fluorescence Intensity: 1030

— patent US20160139131A1 (BIOALLIANCE C V, published 2016)
